Legend:
[1] = target: T1, GST-PGC-1β (1-367 aa; GST-P5) (UniProt Q8VHJ7)
T1 sequence: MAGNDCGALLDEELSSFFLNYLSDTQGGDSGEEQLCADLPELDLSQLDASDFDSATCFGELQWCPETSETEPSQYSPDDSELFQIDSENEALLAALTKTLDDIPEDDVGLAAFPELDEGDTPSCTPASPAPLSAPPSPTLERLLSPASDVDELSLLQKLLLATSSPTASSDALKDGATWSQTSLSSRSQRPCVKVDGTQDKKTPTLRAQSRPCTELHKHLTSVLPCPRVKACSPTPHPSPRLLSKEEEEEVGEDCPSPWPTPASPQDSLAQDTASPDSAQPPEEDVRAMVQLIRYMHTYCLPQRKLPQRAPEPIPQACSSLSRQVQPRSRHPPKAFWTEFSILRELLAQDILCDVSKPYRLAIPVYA

[2] = target: T2, in vitro transcribed/translated PGC-1β (FLAG-PGC), Q8VHJ7
T2 chain: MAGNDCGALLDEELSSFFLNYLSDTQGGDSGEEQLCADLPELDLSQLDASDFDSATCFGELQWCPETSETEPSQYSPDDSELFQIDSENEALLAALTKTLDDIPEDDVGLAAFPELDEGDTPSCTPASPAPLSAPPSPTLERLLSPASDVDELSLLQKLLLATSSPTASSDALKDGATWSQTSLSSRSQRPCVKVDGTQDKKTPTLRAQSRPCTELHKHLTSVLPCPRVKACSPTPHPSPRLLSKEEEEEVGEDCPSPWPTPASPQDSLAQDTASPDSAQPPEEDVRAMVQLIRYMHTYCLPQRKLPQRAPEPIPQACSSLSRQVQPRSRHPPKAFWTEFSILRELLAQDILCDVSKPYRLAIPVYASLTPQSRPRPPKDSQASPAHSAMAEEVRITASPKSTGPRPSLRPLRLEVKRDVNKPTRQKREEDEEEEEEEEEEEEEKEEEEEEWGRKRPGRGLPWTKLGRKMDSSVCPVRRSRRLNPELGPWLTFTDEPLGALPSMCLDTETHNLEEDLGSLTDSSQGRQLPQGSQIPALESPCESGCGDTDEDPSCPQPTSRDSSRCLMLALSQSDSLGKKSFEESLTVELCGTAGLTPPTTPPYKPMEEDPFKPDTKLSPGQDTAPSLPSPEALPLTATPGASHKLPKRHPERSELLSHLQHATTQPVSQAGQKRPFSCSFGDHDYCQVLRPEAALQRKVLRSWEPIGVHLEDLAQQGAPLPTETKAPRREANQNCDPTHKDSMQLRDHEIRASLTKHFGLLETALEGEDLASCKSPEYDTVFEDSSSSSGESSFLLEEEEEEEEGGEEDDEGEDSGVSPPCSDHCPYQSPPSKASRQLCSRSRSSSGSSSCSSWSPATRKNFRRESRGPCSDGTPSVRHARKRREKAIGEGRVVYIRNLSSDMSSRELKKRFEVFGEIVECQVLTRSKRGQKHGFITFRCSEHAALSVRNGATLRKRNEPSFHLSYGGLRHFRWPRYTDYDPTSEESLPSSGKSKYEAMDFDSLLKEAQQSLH

[3] = target: T3, HA PGC-1β (full-length mouse PGC-1β with HA tag), Q8VHJ7
T3 chain: T2 chain

[4] = target: T4, HA PGC-1β (full-length mouse PGC-1β with HA tag) (mouse, UniProt Q8VHJ7 1-1014); assay: cell-based or functional assay
T4 sequence (looked up): T2 chain

[5] = target: T4, HA PGC-1β (full-length mouse PGC-1β …); assay: co-immunoprecipitation with anti-FLAG from HEK-293T extract, anti-HA Western blot
Procedure: Whether synoviolin and PGC-1β actually form a complex in in vivo was investigated. Specifically, a plasmid for expressing PGC-1β with HA tag (HA PGC-1β) and a plasmid for expressing synoviolin with FLAG tag (SYVN1/FLAG) or the modified synoviolin with FLAG tag (SYVN1ΔSyU/FLAG) were transfected in HEK-293T cells. Whole cell extract from the HEK-293T cells transfected with the expression plasmids was prepared to immunoprecipitate using anti-FLAG antibody. Proteins bound to the anti-FLAG antibody were eluted and separated by SDS-PAGE, and Western blot was performed using anti-HA antibody and the anti-FLAG antibody.

## MBP-SYVN1 ΔTM-His
[1]
  in vitro ubiquitination assay (E1-His, UbcH5C, HA-ubiquitin; GST capture, Western blot): synoviolin (SYVN1) has directly ubiquitinated PGC-1β

B1: modified synoviolin fused to GST (syno(236-338)) (protein)
chain: KVHTFPLFAIRPMYLAMRQFKKAVTDAIMSRRAIRNMNTLYPDATPEELQAMDNVCIICREEMVTGAKRLPCNHIFHTSCLRSWFQRQQTCPTCRMDVLRASL
[2]
  in vitro ubiquitination assay: polyubiquitinated PGC-1β was detected under the condition with the presence of all of ATP, PK-His-HA-Ub, E1-His, UBE2G2-His, and syno(236-338)

B2: modified synoviolin with FLAG tag (SYVN1ΔSyU/FLAG) (enzyme, UniProt Q86TM6 1-617, looked up)
chain: MFRTAVMMAASLALTGAVVAHAYYLKHQFYPTVVYLTKSSPSMAVLYIQAFVLVFLLGKVMGKVFFGQLRAAEMEHLLERSWYAVTETCLAFTVFRDDFSPRFVALFTLLLFLKCFHWLAEDRVDFMERSPNISWLFHCRIVSLMFLLGILDFLFVSHAYHSILTRGASVQLVFGFEYAILMTMVLTIFIKYVLHSVDLQSENPWDNKAVYMLYTELFTGFIKVLLYMAFMTIMINMNTLYPDATPEELQAMDNVCIICREEMVTGAKRLPCNHIFHTSCLRSWFQRQQTCPTCRMDVLRASLPAQSPPPPEPADQGPPPAPHPPPLLPQPPNFPQGLLPPFPPGMFPLWPPMGPFPPVPPPPSSGEAVAPPSTSAAALSRPSGAATTTAAGTSATAASATASGPGSGSAPEAGPAPGFPFPPPWMGMPLPPPFAFPPMPVPPAGFAGLTPEELRALEGHERQHLEARLQSLRNIHTLLDAAMLQINQYLTVLASLGPPRPATSVNSTEETATTVVAAASSTSIPSSEATTPTPGASPPAPEMERPPAPESVGTEEMPEDGEPDAAELRRRRLQKLESPVAH
notes: Deletion construct expressed in cells; also called synoviolin ΔSyU/FLAG; Synoviolin ASyU/FLAG; not shown: FLAG tag
[3]
  half-life of PGC-1β (cycloheximide chase, MEF Syno-/-): SYVN1 ΔSyU has not so promoted degradation of PGC-1β
[4]
  half-life of PGC-1β in cells (cycloheximide chase, Western blot): 3.6 h
[5]
  binding result: no binding
